This is an account of results in patent publication US7005413 (Amgen, dated 2006).

Residue numbers refer to the chain shown, from its start. Numbers in names are those of the source.

The chains are these.
B1: muOPG [22-212] (receptor)
chain: ETLLPKYLHYDPETGHQLLCDKCAPGTYLKQHCTVRRKTLCVPCPDHSYTDSWHTSDECVYCSPVCKELQSVKQECNRTHNRVCECEEGRYLEIEFCLKHRSCPPGSGVVQAGTPERNTVCKKCPDGFFSGETSSKAPCIKHTNCSTFGLLLIQKGNATHDNCCSGNREATQKCGIDVTLCEEAFFRFAVP
notes: also called CT212
B2: muOPG [22-200] (receptor)
chain: ETLLPKYLHYDPETGHQLLCDKCAPGTYLKQHCTVRRKTLCVPCPDHSYTDSWHTSDECVYCSPVCKELQSVKQECNRTHNRVCECEEGRYLEIEFCLKHRSCPPGSGVVQAGTPERNTVCKKCPDGFFSGETSSKAPCIKHTNCSTFGLLLIQKGNATHDNCCSGNREATQKCGIDVT
notes: C-terminal truncation ending at threonine 200, expressed in 293 cells; also called CT 200
B3: huOPG [22-401] (receptor)
chain: ETFPPKYLHYDEETSHQLLCDKCPPGTYLKQHCTAKWKSVCAPCPDHYYTDSWHTSDECLYCSPVCKELQYVKQECNRTHNRVCECKEGRYLEIEFCLKHRSCPPGFGVVQAGTPERNTVCKRCPDGFFSNETSSKAPCRKHTNCSVFGLLLTQKGNATHDNICSGNSESTQKCGIDVTLCEEAFFRFAVPTKFTPNWLSVLVDNLPGTKVNAESVERIKRQHSSQEQTFQLLKLWKHQNKAQDIVKKIIQDIDLCENSVQRHIGHANLTFEQLRSLMESLPGKKVGAEDIEKTIKACKPSDQILKLLSLWRIKNGDQDTLKGLMHALKHSKTYHFPKTVTQSLKKTIRFLHSFTMYKLYQKLFLEMIGNQVQSVKISCL
notes: Recombinant polypeptide from CHO cells
B4: Rat OPG [22-401] produced in transgenic mice (receptor)
chain: ETFPPKYLHYDPETGRQLLCDKCAPGTYLKQHCTVRRKTLCVPCPDYSYTDSWHTSDECVYCSPVCKELQTVKQECNRTHNRVCECEEGRYLELEFCLKHRSCPPGLGVLQAGTPERNTVCKRCPDGFFSGETSSKAPCRKHTNCSSLGLLLIQKGNATHDNVCSGNREATQNCEIDVTLCEEAFFRFAVPTKIIPNWLSVLVDSLPGTKVNAESVERIKRRHSSQEQTFQLLKLWKHQNRDQEMVKKIIQDIDLCESSVQRHIGHANLTTEQLRILMESLPGKKISPDEIERTRKTCKPSEQLLKLLSLWRIKNGDQDTLKGLMYALKHLKAYHFPKTVTHSLRKTIRFLHSFTMYRLYQKLFLEMIGNQVQSVKISCL
notes: Expressed from the rat cDNA under a hepatocyte control element in transgenic mice; Analysed in liver extracts and serum; also called HE-OPG transgene product
B5: muOPG [22-401] C195S (receptor)
chain: ETLLPKYLHYDPETGHQLLCDKCAPGTYLKQHCTVRRKTLCVPCPDHSYTDSWHTSDECVYCSPVCKELQSVKQECNRTHNRVCECEEGRYLEIEFCLKHRSCPPGSGVVQAGTPERNTVCKKCPDGFFSGETSSKAPCIKHTNCSTFGLLLIQKGNATHDNCCSGNREATQKSGIDVTLCEEAFFRFAVPTKIIPNWLSVLVDSLPGTKVNAESVERIKRRHSSQEQTFQLLKLWKHQNRDQEMVKKIIQDIDLCESSVQRHLGHSNLTTEQLLALMESLPGKKISPEEIERTRKTCKSSEQLLKLLSLWRIKNGDQDTLKGLMYALKHLKTSHFPKTVTHSLRKTMRFLHSFTMYRLYQKLFLEMIGNQVQSVKISCL
B6: muOPG [22-401] C277S (receptor)
chain: B5 chain with S174C, C256S
notes: Expressed in 293 cells from pcDNA3.1-muOPG
B7: muOPG [22-401] C400S (receptor)
chain: B5 chain with S174C, C379S
notes: as for B6
B8: muOPG [22-401] C319S (receptor)
chain: B5 chain with S174C, C298S
notes: as for B6
B9: muOPG [22-401] C202S (receptor)
chain: B5 chain with S174C, C181S
notes: as for B6

The first data set concerns the molecule itself. Kind of data set: homodimerization; non-reducing SDS-PAGE and western blot with anti-OPG antibodies. The method, then:
Each resulting muOPG-CT plasmid containing the appropriate truncation was then transfected into human 293 cells, the mutant OPG-Fc fusion protein purified from conditioned media as described above. The biological activity of each protein was assessed the in vitro osteoclast forming assay described in example 11. The conditioned medias were also analysed by non-reducing SDS-PAGE and western blotting using anti-OPG antibodies.
For orientation: Immunoblotting shows a protein as a band on a membrane.
For the protein B1, the binding result was “no binding”.

With B2, the binding result is on record as “no binding”.

Another data set concerns the molecule itself. Kind of data set: self-association; nonreducing SDS gels.
On to B3, for which the binding result is “binds”.

With B4, the binding result is on record as “binds”.

Another data set concerns the molecule itself. Kind of data set: homodimerization; non-reducing SDS-PAGE and western blot; the number is the monomer share. How it is done:
The biological activity of each protein was assessed the in vitro osteoclast forming assay described in example 11. Conditioned media from each transfectant was analysed by non-reducing SDS-PAGE and western blotting with anti-OPG antibodies.
As for B5, the percent monomeric is above 90%.

B6: the percent monomeric is above 90%.

Consider B7, for which the percent monomeric is above 90%.

Take B8: the percent monomeric was above 90%.

B9 displayed a percent monomeric above 90%.
